Changes are numbered by the printed parent chain. Names may count otherwise.
Test system: Lenti-X 293T cells
Assay: YFP fluorescence quenching anion reporter plate reader assay of engineered receptors stimulated with acetylcholine or a non-native ligand
Type: cell-based
Conditions: for percent quench of YFP fluorescence, 10 uM ach: acetylcholine 10 uM; for percent quench of YFP fluorescence, 100 uM ach: acetylcholine 100 uM; for percent quench of YFP fluorescence, 1 mM ach: acetylcholine 1 mM; for percent quench of YFP fluorescence, 3 mM ach: acetylcholine 3 mM
Outline: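 YFP quench was followed for about 1 min 43 s after ligand delivered in iodide-based ECS, pH 7.2. Values are end-of-read fluorescence (last 10 s) divided by the pre-ligand baseline (15 s). Cells were LX293T, transfected with receptor DNA a day before the assay.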

B1: CODA217: engineered chimeric LGIC receptor, W77F in SEQ ID NO: 33 (protein)
chain: MRCSPGGVWLALAASLLHVSLQGEFQRKLYKELVKNYNPLERPVANDSQPLTVYFSLSLLQIMDVDEKNQVLTTNIFLQMSWTDHYLQWNVSEYPGVKTVRFPDGQIWKPDILLYNSADERFDATFHTNVLVNSSGHCQYLPPGIFKSSCPMDLKNFPMDVQTCKLKFGSWSYGGWSLDLQMQEADISGYIPNGEWDLVGIPGKRSERFYECCKEPYPDVTFTVTMRRRMGYYLIQMYIPSLLIVILSWISFWINMDAAPARVGLGITTVLTMTTQSSGSRASLPKVSYVKAIDIWMAVCLLFVFSALLEYAAVNFVSRQHKELLRFRRKRRHHKSPMLNLFQEDEAGEGRFNFSAYGMGPACLQAKDGISVKGANNSNTTNPPPAPSKSPEEMRKLFIQRAKKIDKISRIGFPMAFLIFNMFYWIIYKIVRREDVHNQ
modifications: synthetic sequence of chimeric LGIC
- YFP fluorescence quenching using CNL001 (1 nM CNL001, first column): −22.273%
- YFP fluorescence quenching using CNL001 (1 nM CNL001, second column): −19.415%
- YFP fluorescence quenching using TC-5619/Bradanicline (3 nM brd): −12.1%
- YFP fluorescence quenching using Varenicline (3 nM var, first column): 5.662
- YFP fluorescence quenching using Varenicline (3 nM var, second column): 7.57
- YFP fluorescence quenching using CNL001 (10 nM CNL001, first column): −9.563%
- YFP fluorescence quenching using CNL001 (10 nM CNL001, second column): 6.398%
- YFP fluorescence quenching using TC-5619/Bradanicline (30 nM brd): −14.72%
- YFP fluorescence quenching using Facinicline (30 nM fac): −10.14
- YFP fluorescence quenching using Varenicline (30 nM var, first column): 13.968
- YFP fluorescence quenching using Varenicline (30 nM var, second column): 19.079
- YFP fluorescence quenching using CNL001 (50 nM CNL001, first column): 61.938%
- YFP fluorescence quenching using CNL001 (50 nM CNL001, second column): 66.837%
- YFP fluorescence quenching using ABT-126 (50 nM abt): 37.81%
- YFP fluorescence quenching using CNL001 (100 nM CNL001, first column): 79.791%
- YFP fluorescence quenching using CNL001 (100 nM CNL001, second column): 80.908%
- YFP fluorescence quenching using CNL002 (100 nM CNL002): 67.81%
- YFP fluorescence quenching using ABT-126 (100 nM abt): 57.31%
- YFP fluorescence quenching using AZD-0328 (100 nM azd0328): −7.57%
- YFP fluorescence quenching using ABT-126 (300 nM abt): 12.61%
- YFP fluorescence quenching using AZD-0328 (300 nM azd0328): 7.08%
- YFP fluorescence quenching using TC-5619/Bradanicline (300 nM brd): −6.3%
- YFP fluorescence quenching using Facinicline (300 nM fac): 68.29
- YFP fluorescence quenching using Varenicline (300 nM var, first column): 16.183
- YFP fluorescence quenching using Varenicline (300 nM var, second column): 18.025
- YFP fluorescence quenching using Varenicline (500 nM var, first column): 23.366
- YFP fluorescence quenching using Varenicline (500 nM var, second column): 19.206
- YFP fluorescence quenching using CNL001 (1 uM CNL001, first column): 83.444%
- YFP fluorescence quenching using CNL001 (1 uM CNL001, second column): 83.905%
- YFP fluorescence quenching using CNL002 (1 uM CNL002): 69.42%
- YFP fluorescence quenching using ABT-126 (1 uM abt): 66.05%
- YFP fluorescence quenching using TC-6987 (1 uM tc6987): −10.35
- YFP fluorescence quenching using Varenicline (1 uM var, first column): 34.69
- YFP fluorescence quenching using Varenicline (1 uM var, second column): 30.504
- YFP fluorescence quenching using TC-6987 (10 uM tc6987): −13.93
- YFP fluorescence quenching using CNL002 (30 uM CNL002): 73.64%
- YFP fluorescence quenching using AZD-0328 (30 uM azd0328): 81.59%
- YFP fluorescence quenching using Facinicline (30 uM fac): 87.35
- YFP fluorescence quenching using TC-6987 (500 uM tc6987): −7.54
- percent quench of YFP fluorescence, 10 uM ach: −5.86%
- percent quench of YFP fluorescence, 100 uM ach: 70.06%
- percent quench of YFP fluorescence, 1 mM ach: 68.71%
- percent quench of YFP fluorescence, 3 mM ach: 73.45%

B2: CODA109: engineered chimeric LGIC receptor, S170T in SEQ ID NO: 33 (protein)
chain: B1 chain with F77W, S170T
modifications: synthetic sequence of chimeric LGIC
- YFP fluorescence quenching using CNL001 (1 nM CNL001, first column): 19.755%
- YFP fluorescence quenching using CNL001 (1 nM CNL001, second column): 65.484%
- YFP fluorescence quenching using TC-5619/Bradanicline (3 nM brd): 70.58%
- YFP fluorescence quenching using Varenicline (3 nM var, first column): −20.96
- YFP fluorescence quenching using Varenicline (3 nM var, second column): −19.953
- YFP fluorescence quenching using CNL001 (10 nM CNL001, first column): 79.024%
- YFP fluorescence quenching using CNL001 (10 nM CNL001, second column): 81.563%
- YFP fluorescence quenching using TC-5619/Bradanicline (30 nM brd): 80.71%
- YFP fluorescence quenching using Facinicline (30 nM fac): 76.45
- YFP fluorescence quenching using Varenicline (30 nM var, first column): −16.094
- YFP fluorescence quenching using Varenicline (30 nM var, second column): −21.502
- YFP fluorescence quenching using CNL001 (50 nM CNL001, first column): 81.926%
- YFP fluorescence quenching using CNL001 (50 nM CNL001, second column): 83.092%
- YFP fluorescence quenching using ABT-126 (50 nM abt): 55.83%
- YFP fluorescence quenching using CNL001 (100 nM CNL001, first column): 83%
- YFP fluorescence quenching using CNL001 (100 nM CNL001, second column): 83.811%
- YFP fluorescence quenching using CNL002 (100 nM CNL002): 73.48%
- YFP fluorescence quenching using ABT-126 (100 nM abt): 68.89%
- YFP fluorescence quenching using AZD-0328 (100 nM azd0328): 84.01%
- YFP fluorescence quenching using Facinicline (100 nM fac): 82.45
- YFP fluorescence quenching using ABT-126 (300 nM abt): 72.52%
- YFP fluorescence quenching using AZD-0328 (300 nM azd0328): 87.08%
- YFP fluorescence quenching using TC-5619/Bradanicline (300 nM brd): 80.66%
- YFP fluorescence quenching using Facinicline (300 nM fac): 71.09
- YFP fluorescence quenching using Varenicline (300 nM var, first column): 64.373
- YFP fluorescence quenching using Varenicline (300 nM var, second column): 71.198
- YFP fluorescence quenching using Varenicline (500 nM var, first column): 71.892
- YFP fluorescence quenching using Varenicline (500 nM var, second column): 73.53
- YFP fluorescence quenching using CNL001 (1 uM CNL001, first column): 81.834%
- YFP fluorescence quenching using CNL001 (1 uM CNL001, second column): 83.858%
- YFP fluorescence quenching using CNL002 (1 uM CNL002): 70.03%
- YFP fluorescence quenching using ABT-126 (1 uM abt): 70.96%
- YFP fluorescence quenching using TC-6987 (1 uM tc6987): 71.45
- YFP fluorescence quenching using Varenicline (1 uM var, first column): 75.461
- YFP fluorescence quenching using Varenicline (1 uM var, second column): 78.578
- YFP fluorescence quenching using TC-6987 (10 uM tc6987): 71.04
- YFP fluorescence quenching using AZD-0328 (30 uM azd0328): 87.27%
- YFP fluorescence quenching using Facinicline (30 uM fac): 69.41
- YFP fluorescence quenching using TC-6987 (500 uM tc6987): 66.2
- percent quench of YFP fluorescence, 10 uM ach: 82.91%
- percent quench of YFP fluorescence, 30 uM ach (acetylcholine 30 uM): 82.53%
- percent quench of YFP fluorescence, 50 uM ach (acetylcholine 50 uM): 82.11%
- percent quench of YFP fluorescence, 100 uM ach: 83.68%
- percent quench of YFP fluorescence, 1 mM ach: 69.89%
- percent quench of YFP fluorescence, 3 mM ach: 78.12%
